Measurements reported in paper PMC7210961.

Assays:
[1] = biological target: human Nav1.7 (hNav1.7), wild type (human) (UniProt Q15858)
[2] = biological target: human Nav1.9 with C-terminal GFP (hNav1.9-GFP), wild type (human) (UniProt Q9UI33)
[3] = biological target: Nav1.8/1.7 DII s3b-s4 chimaera (reverse chimaera: DII s3b-s4 of Nav1.7 built into Nav1.8) (rat | human)
[4] = biological target: hNav1.7 E818R (human) (UniProt Q15858)

HpTx1 (spider peptide toxin; rational nomenclature κ-sparatoxin-Hv1a) (from UniProt P58425 1-33)
dose-dependent inhibition of hNav1.7 currents in HEK293T cells (whole-cell patch clamp), IC50 [1]: 0.51 µM
inhibition of the fast inactivation of hNav1.9 currents in ND7/23 cells, dose-response (whole-cell patch clamp), EC50 [2]: 0.47 µM
dose-dependent inhibition of the currents of the reverse chimaeric channel by HpTx1 (whole-cell patch clamp), IC50 [3]: 3 µM
fold reduction in HpTx1 activity (IC50 of current inhibition) against WT hNav1.7 (whole-cell patch clamp) [4]: 20 fold
